In the supplement of paper PMC10065799, “High-throughput profiling of sequence recognition by tyrosine kinases and SH2 domains using bacterial peptide display” (eLife, 2023):

How the values were obtained:
EPHB2 = EPHB2 (UniProt P29323); experiment: phosphorylation enrichment, bacterial display (enrichment ratio); higher = better substrate or ligand; peptides without Tyr show the background
EPHB1 = EPHB1 (UniProt P54762); experiment: as above
AncSZ = experiment: as above
c-Src = experiment: as above
Jak2 = Jak2 (UniProt O60674); experiment: as above
Chain of Jak2 (O60674 whole entry, looked up): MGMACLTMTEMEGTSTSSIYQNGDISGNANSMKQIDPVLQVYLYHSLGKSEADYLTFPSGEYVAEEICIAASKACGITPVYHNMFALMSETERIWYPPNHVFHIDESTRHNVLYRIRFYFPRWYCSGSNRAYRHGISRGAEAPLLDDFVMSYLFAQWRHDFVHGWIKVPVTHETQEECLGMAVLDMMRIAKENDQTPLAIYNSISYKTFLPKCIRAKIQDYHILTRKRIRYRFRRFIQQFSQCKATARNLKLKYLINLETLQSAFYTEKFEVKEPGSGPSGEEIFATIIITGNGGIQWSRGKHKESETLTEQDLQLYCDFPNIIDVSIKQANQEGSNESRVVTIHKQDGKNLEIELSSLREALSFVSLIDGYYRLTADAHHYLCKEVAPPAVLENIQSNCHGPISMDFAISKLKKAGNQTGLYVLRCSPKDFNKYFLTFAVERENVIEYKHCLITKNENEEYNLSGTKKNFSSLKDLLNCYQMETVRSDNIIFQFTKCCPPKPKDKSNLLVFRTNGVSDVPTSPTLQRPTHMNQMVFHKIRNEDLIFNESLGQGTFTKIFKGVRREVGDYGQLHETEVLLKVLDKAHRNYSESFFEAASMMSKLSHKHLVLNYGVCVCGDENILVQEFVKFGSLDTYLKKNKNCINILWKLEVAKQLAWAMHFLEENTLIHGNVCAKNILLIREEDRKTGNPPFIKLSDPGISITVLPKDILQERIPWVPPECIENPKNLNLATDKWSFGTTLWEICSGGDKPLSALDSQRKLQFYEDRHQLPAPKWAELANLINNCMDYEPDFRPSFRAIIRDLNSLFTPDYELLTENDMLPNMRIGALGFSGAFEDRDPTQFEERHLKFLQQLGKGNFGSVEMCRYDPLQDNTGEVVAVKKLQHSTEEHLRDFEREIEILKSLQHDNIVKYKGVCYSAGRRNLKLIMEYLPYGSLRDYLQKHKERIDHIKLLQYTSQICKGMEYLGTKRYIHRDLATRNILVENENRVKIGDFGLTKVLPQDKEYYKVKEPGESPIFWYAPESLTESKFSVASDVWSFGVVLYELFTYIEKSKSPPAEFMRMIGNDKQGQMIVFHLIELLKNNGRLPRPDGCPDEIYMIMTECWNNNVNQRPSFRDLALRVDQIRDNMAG

FGFR1 = FGFR1 (UniProt P11362); experiment: as above
Fyn = Fyn (UniProt P06241); experiment: as above
Chain of Fyn (P06241 whole entry, looked up): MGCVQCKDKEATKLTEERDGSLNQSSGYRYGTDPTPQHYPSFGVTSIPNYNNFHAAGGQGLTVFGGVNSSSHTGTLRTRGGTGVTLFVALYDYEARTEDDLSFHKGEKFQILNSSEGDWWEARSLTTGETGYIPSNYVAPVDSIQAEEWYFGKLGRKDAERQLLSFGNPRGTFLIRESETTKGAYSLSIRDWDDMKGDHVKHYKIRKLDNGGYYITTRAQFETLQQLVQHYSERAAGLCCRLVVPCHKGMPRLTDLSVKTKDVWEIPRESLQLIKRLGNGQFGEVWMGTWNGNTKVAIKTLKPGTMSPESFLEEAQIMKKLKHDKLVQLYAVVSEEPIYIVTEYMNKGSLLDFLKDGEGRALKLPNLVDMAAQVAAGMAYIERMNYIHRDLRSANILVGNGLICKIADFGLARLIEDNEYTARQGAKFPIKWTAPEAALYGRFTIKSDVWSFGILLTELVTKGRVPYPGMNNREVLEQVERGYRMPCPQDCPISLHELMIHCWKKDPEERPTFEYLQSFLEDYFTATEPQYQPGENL

c-Abl (mouse) = experiment: as above
FGFR3 = FGFR3 (UniProt P22607); experiment: as above
Fes = Fes (UniProt P07332); experiment: as above
Chain of Fes (P07332 whole entry, looked up): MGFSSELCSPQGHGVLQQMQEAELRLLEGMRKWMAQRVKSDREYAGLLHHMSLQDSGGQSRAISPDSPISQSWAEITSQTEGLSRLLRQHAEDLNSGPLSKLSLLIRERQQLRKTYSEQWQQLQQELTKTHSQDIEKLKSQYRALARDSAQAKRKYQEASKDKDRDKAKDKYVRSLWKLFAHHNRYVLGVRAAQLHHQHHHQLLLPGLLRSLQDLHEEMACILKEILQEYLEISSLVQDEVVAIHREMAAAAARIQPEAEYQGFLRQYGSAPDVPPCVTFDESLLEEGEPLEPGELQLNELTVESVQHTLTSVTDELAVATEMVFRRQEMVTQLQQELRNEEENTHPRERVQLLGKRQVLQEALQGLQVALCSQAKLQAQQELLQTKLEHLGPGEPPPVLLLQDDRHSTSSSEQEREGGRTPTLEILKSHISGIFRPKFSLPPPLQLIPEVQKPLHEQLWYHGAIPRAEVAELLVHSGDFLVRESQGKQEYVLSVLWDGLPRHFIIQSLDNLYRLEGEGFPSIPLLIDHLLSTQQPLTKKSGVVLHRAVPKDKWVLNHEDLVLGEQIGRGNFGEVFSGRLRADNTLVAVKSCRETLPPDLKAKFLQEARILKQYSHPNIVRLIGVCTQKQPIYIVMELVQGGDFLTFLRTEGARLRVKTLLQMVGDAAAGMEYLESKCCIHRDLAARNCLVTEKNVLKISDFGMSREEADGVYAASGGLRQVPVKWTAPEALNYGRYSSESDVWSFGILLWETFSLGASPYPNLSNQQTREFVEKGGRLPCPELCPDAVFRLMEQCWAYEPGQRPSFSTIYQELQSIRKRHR

Hck = Hck (UniProt P08631); experiment: as above
Chain of Hck (P08631 whole entry, looked up): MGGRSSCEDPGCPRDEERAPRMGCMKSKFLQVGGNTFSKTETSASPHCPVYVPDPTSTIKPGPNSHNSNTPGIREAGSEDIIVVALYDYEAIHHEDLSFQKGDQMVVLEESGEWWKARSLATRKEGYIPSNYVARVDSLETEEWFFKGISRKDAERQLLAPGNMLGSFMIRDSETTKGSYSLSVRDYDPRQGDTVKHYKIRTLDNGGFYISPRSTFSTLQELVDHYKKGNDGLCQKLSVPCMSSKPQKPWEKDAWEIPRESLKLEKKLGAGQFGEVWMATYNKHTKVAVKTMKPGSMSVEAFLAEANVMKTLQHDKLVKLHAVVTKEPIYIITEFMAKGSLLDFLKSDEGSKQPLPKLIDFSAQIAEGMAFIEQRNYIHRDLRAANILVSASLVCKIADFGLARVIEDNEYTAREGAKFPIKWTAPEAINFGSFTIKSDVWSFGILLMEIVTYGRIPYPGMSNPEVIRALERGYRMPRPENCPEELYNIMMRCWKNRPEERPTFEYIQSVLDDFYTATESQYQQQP

Fer (mouse) = experiment: as above
MERTK = MERTK (UniProt Q12866); experiment: as above
Chain of MERTK (Q12866 whole entry, looked up): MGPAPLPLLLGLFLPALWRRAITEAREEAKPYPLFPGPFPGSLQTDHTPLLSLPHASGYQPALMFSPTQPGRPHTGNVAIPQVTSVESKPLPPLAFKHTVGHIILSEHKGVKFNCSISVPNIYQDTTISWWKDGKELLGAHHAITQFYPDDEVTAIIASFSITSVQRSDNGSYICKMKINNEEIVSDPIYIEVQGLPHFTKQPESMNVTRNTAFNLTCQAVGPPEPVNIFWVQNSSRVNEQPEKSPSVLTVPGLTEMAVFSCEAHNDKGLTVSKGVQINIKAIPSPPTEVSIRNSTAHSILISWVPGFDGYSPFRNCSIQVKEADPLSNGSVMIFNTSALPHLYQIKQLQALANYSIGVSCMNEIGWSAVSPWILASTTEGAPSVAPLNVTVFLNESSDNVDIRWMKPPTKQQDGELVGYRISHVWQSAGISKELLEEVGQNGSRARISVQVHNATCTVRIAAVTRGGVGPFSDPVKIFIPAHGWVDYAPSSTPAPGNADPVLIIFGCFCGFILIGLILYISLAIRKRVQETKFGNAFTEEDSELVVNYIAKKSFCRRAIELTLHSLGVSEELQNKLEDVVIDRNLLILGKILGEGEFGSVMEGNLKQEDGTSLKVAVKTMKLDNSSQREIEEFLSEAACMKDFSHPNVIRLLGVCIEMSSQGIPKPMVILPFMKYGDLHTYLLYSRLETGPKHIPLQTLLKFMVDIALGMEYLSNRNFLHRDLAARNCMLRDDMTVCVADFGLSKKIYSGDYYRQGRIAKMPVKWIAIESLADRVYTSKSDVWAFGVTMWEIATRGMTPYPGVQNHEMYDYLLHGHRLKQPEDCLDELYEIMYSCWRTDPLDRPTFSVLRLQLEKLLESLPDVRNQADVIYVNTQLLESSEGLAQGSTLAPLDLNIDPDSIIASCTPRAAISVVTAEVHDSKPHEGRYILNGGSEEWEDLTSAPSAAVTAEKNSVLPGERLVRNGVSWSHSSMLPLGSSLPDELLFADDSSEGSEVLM

c-Src SH2 = experiment: SH2 binding enrichment of the phosphorylated peptide, bacterial display (enrichment ratio); higher = better substrate or ligand; peptides without Tyr show the background
Grb2 SH2 = Grb2 SH2 (UniProt P62993); experiment: as above
SHP2-C SH2 = experiment: as above
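For SH2 binding enrichment of the phosphorylated peptide, bacterial display in this document: peptide library displayed on the E. coli surface as eCPX fusions, selected cells deep-sequenced, score is each peptide's frequency after selection divided by its frequency in the input.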
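For phosphorylation enrichment, bacterial display in this document: 11-residue human phosphosite peptides and single-mutation variants displayed on the E. coli surface, counted by deep sequencing, each peptide's frequency after selection divided by its frequency in the unselected input library; frequency after pTyr selection over input frequency; kinase dosed for 20-30% of maximal phosphorylation in three min.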

Chain of EPHB2 (P29323 whole entry, looked up): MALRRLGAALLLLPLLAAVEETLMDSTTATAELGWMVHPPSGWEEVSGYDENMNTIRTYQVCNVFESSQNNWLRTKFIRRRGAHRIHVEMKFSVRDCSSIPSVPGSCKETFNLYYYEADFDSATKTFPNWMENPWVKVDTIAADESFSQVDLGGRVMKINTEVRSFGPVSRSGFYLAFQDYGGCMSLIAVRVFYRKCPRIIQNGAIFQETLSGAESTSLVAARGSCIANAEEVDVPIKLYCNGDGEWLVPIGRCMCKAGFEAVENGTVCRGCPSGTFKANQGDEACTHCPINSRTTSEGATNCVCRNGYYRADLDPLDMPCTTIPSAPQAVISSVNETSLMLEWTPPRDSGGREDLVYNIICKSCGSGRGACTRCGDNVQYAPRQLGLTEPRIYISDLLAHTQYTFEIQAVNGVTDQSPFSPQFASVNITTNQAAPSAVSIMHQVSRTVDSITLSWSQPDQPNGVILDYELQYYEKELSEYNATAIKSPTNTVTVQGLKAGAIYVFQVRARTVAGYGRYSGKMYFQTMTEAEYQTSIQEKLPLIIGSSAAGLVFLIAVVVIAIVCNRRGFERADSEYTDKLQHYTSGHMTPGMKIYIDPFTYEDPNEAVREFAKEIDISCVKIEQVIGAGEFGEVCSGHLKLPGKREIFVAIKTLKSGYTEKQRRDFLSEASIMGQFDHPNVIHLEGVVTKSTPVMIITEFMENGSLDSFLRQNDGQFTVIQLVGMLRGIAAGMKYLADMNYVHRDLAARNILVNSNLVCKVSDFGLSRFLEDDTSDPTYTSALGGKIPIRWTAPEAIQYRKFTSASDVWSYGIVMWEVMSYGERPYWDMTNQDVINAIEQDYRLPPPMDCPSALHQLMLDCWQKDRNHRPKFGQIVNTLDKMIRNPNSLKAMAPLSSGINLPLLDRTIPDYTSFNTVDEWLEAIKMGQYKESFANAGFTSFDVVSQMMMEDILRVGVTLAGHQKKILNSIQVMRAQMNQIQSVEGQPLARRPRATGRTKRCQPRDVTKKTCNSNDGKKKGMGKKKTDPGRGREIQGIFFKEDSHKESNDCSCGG

Row | Sequence | phosphorylation enrichment (EPHB2) | phosphorylation enrichment (EPHB1) | phosphorylation enrichment (AncSZ) | phosphorylation enrichment (c-Src) | phosphorylation enrichment (Jak2) | phosphorylation enrichment (FGFR1) | phosphorylation enrichment (Fyn) | phosphorylation enrichment (c-Abl (mouse)) | phosphorylation enrichment (FGFR3) | phosphorylation enrichment (Fes) | phosphorylation enrichment (Hck) | phosphorylation enrichment (Fer (mouse)) | phosphorylation enrichment (MERTK) | SH2 binding enrichment (c-Src SH2) | SH2 binding enrichment (Grb2 SH2) | SH2 binding enrichment (SHP2-C SH2)
1 | LKKLEYLNLPL [LRRC6_Y70_A74P] | 0.441 | 0.531 | 0.818 | 0.374 | 0.694 | 1.26 | 0.364 | 0.622 | 1.12 | 0.741 | 0.518 | 0.47 | 0.423 | 0.69 | 10.3 | 1.4
2 | DRLASYLDKVR [KRT10_Y160] | 0.429 | 0.4 | 0.619 | 0.345 | 0.533 | 0.435 | 0.378 | 0.519 | 0.471 | 0.643 | 0.454 | 0.336 | 0.379 | 0.507 | 0.848 | 0.626
3 | TEAEPYYCSLR [NPHS1_Y1138_R1140C] | 1.43 | 1.5 | 1.81 | 3.96 | 1.4 | 1.49 | 4.22 | 1.18 | 1.47 | 1.5 | 4.2 | 1.8 | 2.78 | 1.22 | 0.893 | 0.73
4 | SLESAYPEVSQ [TTF1_Y357_G360V] | 0.792 | 0.514 | 0.951 | 0.523 | 1.09 | 0.507 | 0.447 | 1.55 | 0.611 | 0.941 | 0.858 | 0.4 | 0.471 | 0.482 | 0.764 | 0.607
5 | RELGEYPLAEF [ALDH1A3_Y492_A493P_YF] | 0.645 | 0.511 | 1.18 | 0.582 | 1.41 | 0.709 | 0.636 | 0.753 | 0.742 | 1.14 | 0.536 | 0.484 | 0.614 | 2.13 | 0.763 | 0.617
6 | IIGNGYYFRVF [MYBPC3_Y1135] | 0.619 | 0.628 | 1.08 | 0.335 | 1.46 | 0.374 | 0.327 | 0.775 | 0.79 | 1.16 | 0.373 | 0.413 | 0.318 | 0.472 | 0.852 | 0.651
7 | LVIIKYLPEWT [PSEN1_Y240_F237I] | 2.39 | 2.33 | 3.39 | 0.818 | 2.79 | 1.38 | 1.75 | 1.5 | 2.62 | 2.86 | 1.21 | 0.911 | 1.03 | 1.15 | 1.66 | 1.28
8 | EVESPYEVRDY [GIGYF2_Y1168_H1171R] | 0.752 | 0.785 | 1.23 | 4.71 | 1.16 | 0.542 | 5.17 | 0.765 | 0.751 | 1.29 | 1.48 | 5.62 | 0.554 | 0.626 | 0.674 | 0.885
9 | NACGLYHKMNG [GATA5_Y216] | 0.447 | 0.508 | 0.795 | 0.523 | 0.798 | 0.581 | 0.371 | 0.525 | 0.567 | 1.03 | 0.533 | 0.673 | 0.624 | 1.95 | 0.81 | 0.945
10 | QPAGNYSLSSV [ARFGAP3_Y473] | 0.638 | 0.866 | 0.985 | 0.798 | 0.874 | 0.414 | 0.424 | 0.996 | 0.75 | 0.946 | 0.715 | 0.623 | 0.93 | 0.486 | 0.812 | 1
11 | FENGEYIIRQG [PRKG1_Y247_YF] | 0.464 | 0.543 | 1.01 | 0.591 | 0.92 | 0.499 | 0.572 | 0.653 | 0.69 | 1.07 | 0.565 | 0.557 | 0.427 | 0.382 | 0.908 | 0.462
12 | PVKAAYQKVVA [HBB_Y131_Q128K] | 0.491 | 1.14 | 0.714 | 0.753 | 0.95 | 0.539 | 0.648 | 2.43 | 0.766 | 0.823 | 0.539 | 0.588 | 0.523 | 0.615 | 0.968 | 0.879
13 | CTTIHFNYMCN [TP53_Y234_Y234F] | 0.501 | 0.488 | 0.68 | 0.519 | 0.628 | 0.534 | 0.432 | 0.458 | 0.553 | 0.74 | 0.427 | 0.572 | 0.397 | 1.72 | 1.83 | 2.05
14 | KVKVEYDMTVP [AHNAK_Y964_G962V] | 0.59 | 0.45 | 0.94 | 0.555 | 0.872 | 0.495 | 0.492 | 0.862 | 0.646 | 1.03 | 0.485 | 0.51 | 0.478 | 0.79 | 0.838 | 0.659
15 | SIKDKHVTALF [KCNH2_Y611_Y611H_YF] | 0.42 | 0.354 | 0.576 | 0.52 | 0.441 | 0.418 | 0.417 | 0.486 | 0.435 | 0.633 | 0.463 | 0.399 | 0.469 | 0.443 | 0.659 | 0.456
16 | CTTIYYNYMCN [TP53_Y234_H233Y] | 4.3 | 4.95 | 1.54 | 6.51 | 5.1 | 12.1 | 8.51 | 6.37 | 9.96 | 1.03 | 6.93 | 2.86 | 7.86 | 3.1 | 3.51 | 2.23
